In experiment [1] the target is T1, human CD123 (IL3Rα) on cells (human, UniProt P26951 19-378).
T1 construct: whole, on cells; also called human IL3Rα expressed on 293 cells; AD293hIL3Rα
The experiment is described as follows: flow cytometry on EOL-1 cells, geometric mean. On the procedure: On the day of plating, cells were spun down at 1500 rpm for 3 minutes, counted, and resuspended to a final concentration of 1×10⁶ cells/ml. […] Plates were incubated at 4° C. for 30 minutes. Following incubation plates were washed 3 times by spinning down at 1500 rpm for 3 minutes, flicked and 100 μl of FACS buffer were added. […] Flow data was analyzed in FlowJo software.
Target sequence in this assay (P26951 19-378): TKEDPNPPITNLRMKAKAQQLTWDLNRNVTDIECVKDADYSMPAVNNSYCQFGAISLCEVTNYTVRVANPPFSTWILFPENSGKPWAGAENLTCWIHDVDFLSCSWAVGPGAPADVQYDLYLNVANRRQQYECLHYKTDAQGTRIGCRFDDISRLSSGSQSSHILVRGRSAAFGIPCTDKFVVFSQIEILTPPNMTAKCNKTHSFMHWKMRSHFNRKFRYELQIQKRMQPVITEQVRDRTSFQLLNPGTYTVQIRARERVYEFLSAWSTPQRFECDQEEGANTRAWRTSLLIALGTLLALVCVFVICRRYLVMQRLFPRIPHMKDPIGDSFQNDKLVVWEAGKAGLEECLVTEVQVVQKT

In experiment [2] the target is T1, human CD123 (IL3Rα) on cells. The experiment is described as follows: flow cytometry on THP-1 CD123(+dox) cells, Geo MFI. On the procedure:
THP-1 cells were transfected with an IL3Rα expression construct under the control of a doxycycline inducible promoter. THP-1 cells were maintained in DMEM containing 10% heat-inactivated fetal bovine serum (FBS) and were cultured in a humidified atmosphere of 5% CO₂ and at a temperature of 37° C. […] (Dox) inducible cells were stimulated with 1 μg/ml dox overnight before use. […] On the day of plating, cells were spun down at 1500 rpm for 3 minutes, counted, and resuspended to a final concentration of 1×10⁶ cells/ml. Two hundred μl of cells were plated in wells of 96 well microtiter plates. The plates were spun down at 1500 rpm for 3 minutes and flicked to remove media. One hundred μl of FACS buffer (PBS+2% FBS) was added to each well. […] The antibody concentration started at 12 μg/ml followed by six 1:3 dilutions (no antibody control was also run). The plates were incubated at 4° C. for 30 minutes. Following incubation, the plates were washed 3 times by spinning down at 1500 rpm for 3 minutes, flicked and 100 μl of FACs buffer was added. Alexa 647 secondary antibody (goat anti-human IgG (H+L)) was added at 1:1000 dilution in 100 μl followed by 30 minute 4° C. incubation. The plates were washed as above. […] Cells were analyzed on a BD Bioscience LSRII by collecting 10,000 cells. Flow data was analyzed in FlowJo software.
Target sequence in this assay (P26951 19-378): as above

Experiment [3] addresses T2, GM-CSFRα (Homo sapiens (Human), UniProt P15509 23-320).
T2 construct: also called GM-CSFRa; GM-CSFRa sample; not shown: His tag
T2 sequence: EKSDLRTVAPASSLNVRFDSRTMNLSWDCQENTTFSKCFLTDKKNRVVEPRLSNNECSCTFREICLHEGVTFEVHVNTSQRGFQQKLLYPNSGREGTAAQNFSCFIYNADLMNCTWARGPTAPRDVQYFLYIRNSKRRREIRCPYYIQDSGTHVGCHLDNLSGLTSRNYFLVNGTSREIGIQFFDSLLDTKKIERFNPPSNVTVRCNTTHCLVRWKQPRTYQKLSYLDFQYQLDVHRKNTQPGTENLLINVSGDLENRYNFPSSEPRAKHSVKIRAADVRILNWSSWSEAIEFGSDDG
Description: biolayer interferometry, HT12-GL on the sensor, GM-CSFRa-His in solution. On the procedure: (§1) Biolayer interferometry binding experiments were performed using an Octet RED384 instrument, with all measurements made at 30° C. AHC biosensor probes were soaked in kinetics buffer (PBS pH 7.2+0.02% Tween-20, 0.1% BSA, 0.05% sodium azide) for 10 minutes, followed by baseline signal measurement in kinetics buffer for 60 seconds. […] For binding to hIL3-Rα, the antibody-loaded biosensor tips were dipped in binding buffer for 60 sec (baseline), followed by immersion in a solution containing dilutions of hIL3-Rα (10-0.16 μg/mL) for 300 sec (association), and subsequent immersion in kinetics buffer for 400 sec (dissociation). For binding to hIL5-Rα and GM-CSFRa, all steps were the same except the concentration of antigen was increased (50-1.56 μg/mL) and the dissociation step was decreased to 300 sec. The signal from a buffer only reference sample was subtracted, and all curves were fit with a 1:1 binding model to determine KD values.

The target of experiment [4] is T3, human IL3Rα (CD123), sample in solution for biolayer interferometry (human, UniProt P26951 19-305, limits assumed).
T3 construct: Soluble analyte in the Octet assay; also called hIL3-Rα; hIL3Rα
T3 sequence (looked up): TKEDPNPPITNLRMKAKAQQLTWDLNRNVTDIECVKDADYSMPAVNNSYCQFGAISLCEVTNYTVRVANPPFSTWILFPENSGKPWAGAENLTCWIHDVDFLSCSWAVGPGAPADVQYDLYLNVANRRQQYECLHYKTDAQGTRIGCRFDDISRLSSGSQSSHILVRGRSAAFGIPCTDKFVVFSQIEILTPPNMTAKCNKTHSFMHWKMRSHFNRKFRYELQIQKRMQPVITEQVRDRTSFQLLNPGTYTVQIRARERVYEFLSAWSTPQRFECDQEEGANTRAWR
Description: biolayer interferometry (Octet RED384), antibody on AHC sensor, hIL3-Rα 10-0.16 µg/mL in solution, 1:1 fit. On the procedure: as §1

Experiment [5] has as its target T1, human CD123 (IL3Rα) on cells. Description: flow cytometry with Alexa 647 labelled antibody on Ad293 cells expressing human IL3Ra, geometric mean. The method, then: AD293 cells were maintained in DMEM (Dulbecco's Modified Eagle Medium) containing 10% heat-inactivated fetal bovine serum (FBS) and were cultured in a humidified atmosphere of 5% CO2 and at a temperature of 37° C. On the day of plating, cells were spun down at 1500 rpm for 3 minutes, counted, and resuspended to a final concentration of 0.3×10⁶ cells/ml. Two hundred μl of cells were plated to wells of 96 well microtiter plate. Plates were spun down at 1500 rpm for 3 minutes and flicked to remove media. One hundred μl of FACs buffer (PBS [Phosphate Buffer Saline]+2% FBS) was added to the wells. Plates were then spun again as above followed by addition of primary antibody in 100 μl of FACS buffer. […] Antibody concentration started at 12 μg/ml followed by six 1:3 dilutions (no antibody control was also run). Plates were incubated at 4° C. for 30 minutes. Following incubation plates were washed 3 times by spinning down at 1500 rpm for 3 minutes, flicked and 100 μl of FACS buffer were added. Following a final wash, 100 μl of FACS buffer containing live/dead DAPI (diamidino-2-phenylindole) stain was added to the plates. […] Flow data was analyzed in FlowJo software.

Experiment [6] addresses T4, cynomolgus IL3Rα (CD123), sample in solution for biolayer interferometry (cynomolgus).
T4 construct: Soluble analyte in the Octet assay; construct not described; also called cynomolgus CD123 sample
Description: kinetic binding curves, antibody on the sensor, cyIL3Ra in solution; the sheet prints Temperature: 25 C.

B1: HT12-GL antibody (antibody, human IgG1, kappa, V domains shown)
VH: EVQLLESGGGLVQPGGSLRLSCAASGFTFNIYAMTWVRQAPGKGLEWVSGISAGGDSTYYADSVKGRFTISRDNSKNTLYLQMNSLRAEDTAVYYCAKDRGYYYGMDVWGQGTTVTVSS
VL: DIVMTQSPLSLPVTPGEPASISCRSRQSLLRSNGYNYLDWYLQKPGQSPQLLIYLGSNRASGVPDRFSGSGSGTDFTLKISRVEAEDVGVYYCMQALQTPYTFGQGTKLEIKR
notes: elsewhere unlabeled with a secondary antibody; also called HT12-GL mAb; CD123 mAb
For B1, the 50% effective concentration (EC50 (read off the curve)) in experiment [1] is around 0.04 µg/mL; in experiment [2] it was around 0.3 µg/mL; in experiment [5], around 1 µg/mL. Moreover, the binding result in experiment [3] is on record as “no binding”. The values for the Kd in experiment [4] and in experiment [6] were 0.31 nM and 0.656 nM, respectively.

Source of the values: patent publication US20250051463A1 (AstraZeneca / MedImmune, published 2025).
